Reference: patent US8536121B2, “Methods and reagents for the diagnosis, prevention and treatment of insulin resistance using beta-arrestin2 and its up-regulators” (Shanghai Institutes for Biological Sciences, CAS, priority 2008, dated 2013)

Columns and labels:
[1] = tested on: wild type littermates and βarr2-ko mice; assay: Insulin tolerance tests (ITTs); format: in vivo, mouse; conditions: intraperitoneal 1 U·kg^−1 insulin
Procedure: (§1) For GTTs, mice are injected intraperitoneal with glucose after starvation for 6 hours. Blood glucose is measure at indicated time points. Mice are injected intraperitoneally under fed conditions for ITTs. Blood are collected and determined the glycemia using a glucometer (Roche Accu-chek). Serum insulin levels are measured using rat/mouse ELISA kit.

[2] = tested on: Akt; assay: Akt phosphorylation in liver of mice injected with insulin (immunoblot); format: in vivo, mouse
Procedure: (§2) FIG. 4A, Activation of PI3K by insulin in livers of βarr2-ko mice (n=6), βarr2-tg mice (n=6) and their wild type littermates (n=6). Mice were injected with either saline or insulin (1 U·kg^−1) for 10 min. PI3K were immuno-purified from liver extracts and PI3K activity were measured by ELISA. Data are presented as mean ±s.e.m. *P<0.05, **P<0.005, versus control. FIG. 4B, FIG. 4C, Activation of Akt and downstream targets by insulin in livers of βarr2-ko mice (n=6) (FIG. 4B), βarr2-tg mice (n=6) (FIG. 4C) and their wild type littermates (n=6). Liver protein extracts prepared as in A were used for immunoblot analysis of pAkt, pFoxol, and pGSK3. […] FIG. 4E, Src-dependent activation of Akt. Hep3B hepatocytes were treated with or without 10 μM Src inhibitor PP2 or 100 nM PI3K inhibitor Wortmanin for 30 min, and then stimulated by 100 nM insulin. Phosphorylation levels of Akt at serine/threonine or tyrosine (n=6) were shown. […]
(§3) After mouse is sacrificed, mouse tissues are quickly excised and frozen in liquid nitrogen. Tissue lysate is prepared and protein concentration is determined by Bradford method. […] For immunoblotting, protein bands, emitting infrared fluorescence through excitation of IRDye800CW conjugated secondary antibody, are obtained by Odyssey infrared imaging system, followed by using Scion Image software (Li-Cor Bioscience, Lincoln, Nebr., USA) to perform quantitative analysis. […]

[3] = tested on: PI3K; assay: PI3K activity (ELISA) in liver of mice injected with insulin; format: in vivo, mouse; conditions: insulin 1 U·kg^−1 for 10 min; wild type, βarr2-ko and βarr2-tg mice
Procedure: as §2, with “shown. FIG. 4F, Tyrosine phosphorylation of Akt induced by insulin in livers of βarr2-ko mice (n=6), βarr2-tg mice (n=6) and their wild type littermates (n=6). Akt immuno-purified from protein extracts made in FIG. 4B and FIG. 4C was subjected to immunoblot using antibodies against phosphorylated tyrosine. All mice were 8-weeks old fed with a regular diet. Data are presented as mean ±s.e.m. *P<0.05, **P<0.005, versus control.” for “shown.”

[4] = tested on: Akt/βarrestin2/Src complex; assay: Akt/βarrestin2/Src complex formation in liver of C57BL/6 mice injected with insulin (immunoprecipitation); format: in vivo, mouse; conditions: C57BL/6 mice livers, intraperitoneal insulin 1 U·kg^−1, time-dependent
Procedure: (§4) C57BL/6 mice (n=6) were injected with 1 U·kg^−1 insulin for the indicated times, and liver protein extracts were prepared for immunoprecipitation using anti-Akt antibodies. […] Liver protein extracts prepared as described in a were subjected to immunoprecipitation for IRβ. […] Liver protein extracts prepared from βarr2-ko (n=6), βarr2-tg (n=6), their wild type littermates (n=6) as described were subjected to immunoprecipitation for IRβ. Akt and Src associated with IRβ were detected on immunoblots. […] Hep3B hepatocytes overexpressing HA-βarrestin2 186-409 or βGal were subjected for immunoblot analysis of pAkt, pFoxol, and pGSK3. All mice were 8-weeks old fed with a regular diet.
as §3, with “method. For immunoprecipitation, add relevant antibodies to cell lysate, incubate at 4° C. overnight, add protein A or protein G agarose beads, incubate at 4° C. for 2 h.” for “method.”

[5] = tested on: Akt; assay: Insulin-stimulated Akt phosphorylation in Hep3B hepatocytes treated with inhibitors (immunoblot); format: cell-based, human; conditions: 10 μM PP2 or 100 nM Wortmannin for 30 min, then 100 nM insulin
Procedure: as §2, §3

[6] = tested on: Akt; assay: Co-immunoprecipitation of βarrestin2 truncation mutants with Akt in Hep3B hepatocytes; format: binding, human; conditions: HA-tagged mutant
From the text: (§5) FIG. 5B, Interaction of Akt and Src in liver of wild type littermates but not βarr2-ko mice. Liver protein extracts from βarr2-ko mice (n=6) and their wild type littermates (n=6) were used for immunoprecipitation by anti-Akt or anti-Src antibodies. FIG. 5C, Enhanced interaction of Akt and Src in liver of βarr2-tg mice. Liver protein extracts from βarr2-tg mice (n=6) and their wild type littermates (n=6) were used for immunoprecipitation by anti-Akt or anti-Src antibodies. […] HA-βarrestin2 that co-immunoprecipitated from Hep3B hepatocytes overexpressing Akt or Src without or with HA-βarrestin2, HA-βarrestin2 1-185 was shown on immunoblots using anti-HA antibodies (n=3). […]
(§6) C57BL/6 mice (n=6) were injected with 1 U·kg^−1 insulin for the indicated times, and liver protein extracts were prepared for immunoprecipitation using anti-Akt antibodies. […] Akt and Src associated with IRβ were detected on immunoblots. […]
as §3

[7] = biological target: T1, Src (Homo sapiens, UniProt P12931); assay: Co-immunoprecipitation of βarrestin2 truncation mutants with Src in Hep3B hepatocytes; format: binding; conditions: HA-tagged mutant
T1 construct: Full length of Akt and Src are cloned into modified pcDNA3 vector in-frame with HA or Flag at the N-terminus; expressed in transfected cells; host or cells: Hep3B
From the text: as §5, §6, §3

[8] = tested on: Akt; assay: Insulin-stimulated pAkt, pFoxo1, pGSK3 in Hep3B hepatocytes overexpressing βarrestin2 mutants (immunoblot); format: cell-based, human; conditions: overexpressed in Hep3B hepatocytes, vs βGal
From the text: FIG. 5B, Interaction of Akt and Src in liver of wild type littermates but not βarr2-ko mice. Liver protein extracts from βarr2-ko mice (n=6) and their wild type littermates (n=6) were used for immunoprecipitation by anti-Akt or anti-Src antibodies. FIG. 5C, Enhanced interaction of Akt and Src in liver of βarr2-tg mice. Liver protein extracts from βarr2-tg mice (n=6) and their wild type littermates (n=6) were used for immunoprecipitation by anti-Akt or anti-Src antibodies. […] HA-βarrestin2 that co-immunoprecipitated from Hep3B hepatocytes overexpressing Akt or Src without or with HA-βarrestin2, HA-βarrestin2 1-185 was shown on immunoblots using anti-HA antibodies (n=3). FIG. 5F, Hep3B hepatocytes overexpressing HA-βarrestin2 1-185 or βGal were subjected to immunoprecipitation using anti-Akt antibodies. Akt, Src in the immunopurified complex were shown on immunoblots (n=3). […] Hep3B hepatocytes overexpressing HA-βarrestin2 1-185 or βGal were stimulated by insulin and then subjected to immunoblot analysis of pAkt, pFoxol, and pGSK3. All mice were 8-weeks old fed with a regular diet.
as §4
(§7) After mouse is sacrificed, mouse tissues are quickly excised and frozen in liquid nitrogen. Tissue lysate is prepared and protein concentration is determined by Bradford method. For immunoprecipitation, add relevant antibodies to cell lysate, incubate at 4° C. overnight, add protein A or protein G agarose beads, incubate at 4° C. for 2 h. Proteins that bind protein A or protein G agarose beads are washed in SDS sample buffer and treated at 50° C. for 20 min followed by SDS-PAGE separation and through immunoblotting method to determine relevant proteins. For immunoblotting, protein bands, emitting infrared fluorescence through excitation of IRDye800CW conjugated secondary antibody, are obtained by Odyssey infrared imaging system, followed by using Scion Image software (Li-Cor Bioscience, Lincoln, Nebr., USA) to perform quantitative analysis. […]

[9] = tested on: db/db diabetic mice; assay: Adenovirus injection into db/db diabetic mice (blood glucose, GTTs, ITTs, body weight, food intake, liver βarrestin2); format: in vivo, mouse; conditions: adenovirus encoding mutant, vs βGal
Procedure: (§8) βarr1-ko and βarr2-ko mice are provided by Dr. Robert J. Lefkowitz (Duke University Medical Center, Durham, N.C.). βarr1-tg and βarr2-tg mice are generated as described (Shi, Y., et al., “Critical regulation of CD4+ T cell survival and autoimmunity by beta-arrestin 1,” Nature Immunol., 8, 817-24 (2007)). All other mice are from Shanghai Laboratory Animal Center, Chinese Academy of Sciences. Animal experiments are performed in accordance with the National Institutes of Heath Guide for the Care and Use of Laboratory Animals. Mice are fed with a regular diet (Formulab 5008, Labdiet 5053) or high-fat diet (55% fat calories) (Harlan-Teklad 93075) and have free access to water and diet. Adenovirus (7×10^9 viral particle/100 μl saline) is injected into the tail vein of db/db mice and C57BL/6 to specifically target the liver. Body weight and food intake are measured as described in: Netea, M. G., et al., “Deficiency of interleukin-18 in mice leads to hyperphagia, obesity and insulin resistance,” Nature Medicine, 12, 650-6 (2006).
as §1, with “kit. […]” for “kit.”

[10] = tested on: Akt/Src complex; assay: Akt/Src interaction in Hep3B hepatocytes overexpressing βarrestin2 mutant (anti-Akt immunoprecipitation); format: cell-based, human; conditions: overexpressed in Hep3B hepatocytes, vs βGal
From the text: as §5, with “(n=3). FIG. 5F, Hep3B hepatocytes overexpressing HA-βarrestin2 1-185 or βGal were subjected to immunoprecipitation using anti-Akt antibodies. Akt, Src in the immunopurified complex were shown on immunoblots (n=3).” for “(n=3).”
as §3

[11] = tested on: C57BL/6 mice; assay: Adenovirus encoding βarrestin2 mutants injected into C57BL/6 mice (blood glucose, GTTs, ITTs); format: in vivo, mouse; conditions: for insulin tolerance in ITTs: 1 U·kg^−1, 7 days after adenovirus injection; for glucose tolerance in GTTs: 1 g·kg^−1, 7 days after adenovirus injection; for blood glucose levels: adenovirus, all time points, vs control mice
From the text: C57BL/6 mice were 8 -weeks old fed on regular diet (RD). Data are presented as mean ±s.e.m. *P<0.05, **P<0.005, versus control.
as §8, §1
The CsCl purified adenovirus are used as a saline solution (7×10^9 virus particles per […]) and injected through tail vein.

[12] = biological target: T2, IRβ (Homo sapiens, UniProt P06213); assay: Co-immunoprecipitation of βarrestin2 truncation mutants with IRβ in Hep3B hepatocytes; format: binding; conditions: HA-tagged mutant
T2 construct: IR immunoprecipitated from Hep3B hepatocytes; endogenous in cells; host or cells: Hep3B
Procedure: as §4
as §7, with “Proteins that bind protein A or protein G agarose beads are washed in SDS sample buffer and treated at 50° C. for 20 min followed by SDS-PAGE separation and through immunoblotting method to determine relevant proteins.” left out

insulin: insulin injected into mice or added to cells as stimulus
blood glucose in ITTs [1]: time-dependent reduction | increase in tyrosine phosphorylation of Akt ([2]; liver of wild type mice, insulin stimulation): ~2 fold | increase in the phosphorylation of Akt at Thr308 or Ser473 in liver ([2]; wild type mice, insulin 1 U·kg^−1 for 10 min): ~3 fold | increase in PI3K activity in liver [3]: ~3 fold | Akt/Src interactions [4]: marked increase | Akt/βarrestin2 association [4]: marked increase

CC(C)(C)n1nc(-c2ccc(Cl)cc2)c2c(N)ncnc21 [PP2]
serine/threonine phosphorylation of Akt [5]: remarkably reduced | tyrosine phosphorylation of Akt [5]: remarkably reduced

B1: βarrestin2 1-185: truncated form of βarrestin2 containing amino acids 1-185, dominant negative mutant; overexpressed in Hep3B or delivered by adenovirus (protein)
chain: MGEKPGTRVFKKSSPNCKLTVYLGKRDFVDHLDKVDPVDGVVLVDPDYLKDRKVFVTLTCAFRYGREDLDVLGLSFRKDLFIATYQAFPPVPNPPRPPTRLQDRLLRKLGQHAHPFFFTIPQNLPCSVTLQPGPEDTGKACGVDFEIRAFCAKSLEEKSHKRNSVRLVIRKVQFAPEKPGPQPSA
modifications: left off: small tags and cut ends
notes: overexpressed in Hep3B or delivered by adenovirus
interaction with Akt [6]: not Akt | interaction with Src [7]: interacts with Src | insulin-stimulated phosphorylation (activation) of Akt [8]: markedly reduced | insulin-stimulated phosphorylation of Foxo1 [8]: markedly reduced | insulin-stimulated phosphorylation of GSK3 [8]: markedly reduced | insulin resistance [9]: aggravates | Akt/Src interactions [10]: inhibits | insulin tolerance in ITTs [11]: impair | glucose tolerance in GTTs [11]: impair | blood glucose levels [11]: higher

B2: βarrestin2 186-409: truncated mutant of βarrestin2 that interacts with IR but not Akt or Src; overexpressed in Hep3B or delivered by adenovirus (protein)
chain: ETTRHFLMSDRSLHLEASLDKELYYHGEPLNVNVHVTNNSTKTVKKIKVSVRQYADICLFSTAQYKCPVAQLEQDDQVSPSSTFCKVYTITPLLSDNREKRGLALDGKLKHEDTNLASSTIVKEGANKEVLGILVSYRVKVKLVVSRGGDVSVELPFVLMHPKPHDHIPLPRPQSAAPETDVPVDTNLIEFDTNYATDDDIVFEDFARLRLKGMKDDDYDDQLC
modifications: left off: small tags and cut ends
notes: as for B1
interaction with Akt [6]: not Akt or Src | interaction with Src [7]: not Akt or Src | interaction with IRβ [12]: interacts with IRβ | insulin-stimulated phosphorylation (activation) of Akt [8]: suppresses | insulin resistance [9]: aggravates | insulin tolerance in ITTs [11]: impair | glucose tolerance in GTTs [11]: impair | blood glucose levels [11]: higher
